These results are taken from US20180022815A1.

The target of this assay is BCMA and CD138 on H929 cells. The assay is described as follows: flow cytometry on H929 cells, sheep antihuman Ig-FITC secondary.

B1: bi-specific CD138/BCMA-IgG (dual CD138 scFv - 218S linker - BCMA scFv fused with a human IgG Fc) (bispecific antibody, not shown: a dimerising Fc or GST)
chain: DIQMTQSTSSLSASLGDRVTISCSASQGINNYLNWYQQKPDGTVELLIYYTSTLQSGVPSRFSGSGSGTDYSLTISNLEPEDIGTYYCQQYSKLPRTFGGGTKLEIKGSTSGSGKPGSSEGSTKGQVQLQQSGSELMMPGASVKISCKATGYTFSNYWIEWVKQRPGHGLEWIGEILPGTGRTIYNEKFKGKATFTADISSNTVQMQLSSLTSEDSAVYYCARRDYYGNFYYAMDYWGQGTSVTVSSGSTSGSGKPGSSEGSTKDIVLTQSPASLAVSLGDRATINCRASESVSVIGAHLIHWYQQKPGQPPKLLIYLASNLETGVPARFSGSGSGTDFTLTISSLQAEDAAIYYCLQSRIFPRTFGQGTKLEIKGSTSGSGKPGSSEGSTKGQVQLVQSGSELKKPGASVKVSCKASGYTFTDYSIQWVRQAPGQGLEWMGWIQTETREPAYAYDFRGRFVFSLDTSVSTAYLQISSLKAEDTAVYYCALDYSYAMDYWGQGTLVTVSS
The molecule B1 displayed a percent of H929 cells stained ("efficiency") of 84.8%.
